Patent US20190071490A1, “Preventing Post-Ictal Headaches” (Beth Israel Deaconess Medical Center, Inc., priority 2017, published 2019)

What was measured:
[1] = test system: central trigeminovascular neurons (medullary dorsal horn); experiment: Seizure (picrotoxin)-induced activation of trigeminovascular neurons, single-unit recording; assay type: in vivo; details: rat
Excerpt: Cortical electrodes were used to trace the magnitude, extent and progression of epileptiform seizures.
Single-unit recordings were obtained from neurons in the trigeminal ganglion and dorsal horn as described in previous studies (Burstein et al. (1998) J. Neurophysiol. 79: 964-82; Strassman and Levy (2006) J. Neurophysiol. 95: 1298-306; Strassman et al. (1996) Nature 384: 560-4; Zhang et al. (2010) J. Neurosci. 30: 8807-14; and Zhang et al. (2011) Ann. Neurol. 69: 855-65). Experiments were done in adult Sprague-Dawley rats (250 g to 350 g). Animals were anesthetized with urethane (1.2-1.5 g/kg), artificially ventilated with oxygen, and paralyzed. Body temperature was controlled, and end-tidal CO2 and oxygen saturation was monitored. For ganglion recordings, four separate craniotomies were made: over the contralateral cortex, to advance the microelectrode; over the ipsilateral parietal cortex, and the ipsilateral occipital cortex, for application of the picrotoxin and recording of electrocorticogram activity; and over the ipsilateral transverse sinus, for electrical and mechanical stimulation of dural afferents, and lidocaine application. For dorsal horn recording, the same craniotomies were made over the ipsilateral cortex and the ipsilateral transverse sinus, but no contralateral craniotomy was made. Instead, a laminectomy was made to expose the upper cervical spinal cord (C1-2) for microelectrode recording. In both the trigeminal ganglion and the dorsal horn recording experiments, the search stimulus for finding dura-sensitive neurons is single-shock electrical stimulation applied to the dura covering the transverse sinus.
Seizure was induced by application of picrotoxin to the surface of the cerebral cortex (10 μl, applied on a small piece of gelfoam, at a concentration of either 5 mM or 100 mM, for focal or generalized seizure, respectively). For verification of seizure induction, cortical activity was recorded with a glass micropipette (0.9% saline, ˜1 megohm, 7 μm tip) placed just below the surface of the cerebral cortex, at the parietal and the occipital site. […]

[2] = test system: CSD-sensitized central trigeminovascular neurons (HT, WDR) in the spinal trigeminal nucleus; experiment: Activation and sensitization of trigeminovascular neurons by cortical spreading depression (CSD); assay type: in vivo, rat; details: for mean firing rate of HT neurons after CSD: 6 hours after 30 mg/kg i.v.; for mean firing rate of HT neurons before CSD: 4 hours after 30 mg/kg i.v.
Experimental: Cortical spreading depression (CSD) was induced mechanically by inserting a glass micropipette (tip diameter 25 μm) about 1 mm into the visual cortex for 10 sec. At a propagation rate of 3-5 mm/min, a single wave of CSD was expected to enter the neuronal receptive field within 1-2 min of cortical stimulation. For verification of CSD, cortical activity was recorded (electrocorticogram) with a glass micropipette (0.9% saline, ˜1 megohm, 7 um tip) placed just below the surface of the cerebral cortex (approximately 100 μm). The electrocorticogram electrode was positioned about 6 mm anterior to the visual cortex.
It was diluted in saline to a final dose of 30 mg/kg and administered intravenously (bolus injection, total volume 0.6-0.7 ml). A corresponding human IgG2 isotype control antibody (isotype-conAb) was also diluted in saline to a final dose of 30 mg/kg and administered intravenously (bolus injection, total volume 1.6-2.0 ml).
The experimental protocol included two parts. The first part was designed to compare CGRP-mAb vs isotype-conAb effects on spontaneous and induced activity of naïve trigeminovascular neurons, and the second part was designed to test CGRP-mAb vs isotype-conAb effects on the activation and sensitization of trigeminovascular neurons by CSD. Both parts included sampling of WDR and HT neurons in male and female rats. In the first part, the baseline neuronal profile was established by (a) mapping the dural, cutaneous and corneal receptive field; (b) measuring responses (mean spikes/sec) to mechanical stimulation of the dura (with a fixed force), skin (brush, pressure, pinch) and cornea (brush), and (c) measuring spontaneous firing rate (recorded over 30 min prior to treatment). Once the baseline was established, CGRP-mAb or isotype-conAb were administered and receptive fields were remapped, neuronal responses to stimulation of the dura, skin and cornea were re-examined, and the spontaneous activity rate was re-sampled at 1, 2, 3, and 4 hours post-treatment. The resulting values for each measure were then compared with the respective baseline values obtained before treatment. In the second part, CSD was induced 4 hours after administration of CGRP-mAb or isotype-conAb and 2 hours later (i.e., 6 hours after treatment) receptive field size, spontaneous activity rate, and response magnitude to stimulation of the dura, skin and cornea were measured again. The resulting post-CSD values for each measure were then compared with the respective pre-CSD values obtained at the 4-hour post-treatment time. This part was initiated only in cases in which the physiological condition of the rats (heart rate, blood pressure, respiration, end tidal CO2) and the neuronal isolation signal (signal-to-noise ratio ≥1:3) were stable at the 4-hour post-treatment time point.
To calculate the response magnitude to each stimulus, the mean firing frequency occurring before the onset of the first stimulus (30 min for spontaneous activity, 10 sec for mechanical stimulation of the dura, skin and cornea) was subtracted from the mean firing frequency that occurred throughout the duration of each stimulus. […] A neuron was considered activated when its mean firing rate after CSD exceeded its mean baseline activity by 2 standard deviations of that mean for a period >10 min, which translated to ≥33% increase in activity. […] Mean firing rates of respective values were compared using nonparametric statistics (Wilcoxon signed-ranks test). Two-tailed level of significance was set at 0.05.

[3] = male and female rats, case-by-case analysis

B1: G1: humanized monoclonal anti-CGRP antagonist antibody; heavy chain SEQ ID NO:11, light chain SEQ ID NO:12 (antibody)
heavy: EVQLVESGGGLVQPGGSLRLSCAASGFTFSNYWISWVRQAPGKGLEWVAEIRSESDASATHYAEAVKGRFTISRDNAKNSLYLQMNSLRAEDTAVYYCLAYFDYGLAIQNYWGQGTLVTVSSASTKGPSVFPLAPCSRSTSESTAALGCLVKDYFPEPVTVSWNSGALTSGVHTFPAVLQSSGLYSLSSVVTVPSSNFGTQTYTCNVDHKPSNTKVDKTVERKCCVECPPCPAPPVAGPSVFLFPPKPKDTLMISRTPEVTCVVVDVSHEDPEVQFNWYVDGVEVHNAKTKPREEQFNSTFRVVSVLTVVHQDWLNGKEYKCKVSNKGLPSSIEKTISKTKGQPREPQVYTLPPSREEMTKNQVSLTCLVKGFYPSDIAVEWESNGQPENNYKTTPPMLDSDGSFFLYSKLTVDKSRWQQGNVFSCSVMHEALHNHYTQKSLSLSPGK
light: EIVLTQSPATLSLSPGERATLSCKASKRVTTYVSWYQQKPGQAPRLLIYGASNRYLGIPARFSGSGSGTDFTLTISSLEPEDFAVYYCSQSYNYPYTFGQGTKLEIKRTVAAPSVFIFPPSDEQLKSGTASVVCLLNNFYPREAKVQWKVDNALQSGNSQESVTEQDSKDSTYSLSSTLTLSKADYEKHKVYACEVTHQGLSSPVTKSFNRGEC
neurons activated by the seizure (number/total) ([1]; 30 mg/kg i.v. four hours before induction of seizure, medullary dorsal horn, untreated 28/30): 2/13 | neurons activated by the seizure (percent) ([1]; 30 mg/kg i.v. four hours before induction of seizure, medullary dorsal horn, untreated 93%): 15% | activation of central trigeminovascular neuron by seizure (FIG. 9) ([1]; 30 mg/kg intravenously four hours before induction of seizure): prevented the activation of a central trigeminovascular neuron but not the occurrence of a seizure | difference between CGRP-mAb and isotype-conAb in HT neurons activated by CSD ([2]; case-by-case analysis): 86% | difference between CGRP-mAb and isotype-conAb in WDR neurons activated by CSD ([2]; case-by-case analysis): 2% | HT neurons with expansion of dural receptive fields after CSD (number/total) ([2]; female rats): 0/6 | HT neurons with expansion of facial receptive fields after CSD (number/total) ([2]; female rats): 0/6 | response of HT neurons to dural indentation with VFH before CSD ([2]; female rats): 10.5±1.6 spikes/sec | response of HT neurons to brushing the cornea after CSD vs before ([2]; female rats, 6 HT neurons, p=0.51): remained unchanged | mean firing rate of HT neurons after CSD ([2]; female rats, 2 hours after CSD): 5.0±3.4 spikes/sec | response of HT neurons to dural indentation with VFH after CSD ([2]; female rats, 2 hours after CSD, 6 hours after administration): 8.1±6.4 spikes/sec | mean firing rate of HT neurons before CSD ([2]; female rats): 3.3±1.7 spikes/sec | neuronal responses of HT neurons to brush, pressure and pinch after CSD vs before ([2]; male and female rats, 2 hours after CSD, 6 hours after administration): remained unchanged | HT neurons activated by CSD (number/total) [2, 3]: 2/14 | WDR neurons activated by CSD (number/total) [2, 3]: 5/13 | HT neurons with expansion of dural receptive fields after CSD (number/total) ([2]; male rats): 2/8 | HT neurons with expansion of facial receptive fields after CSD (number/total) ([2]; male rats): 2/8 | response of HT neurons to corneal stimulation after CSD ([2]; male rats): 9.4±1.8 spikes/sec | response of HT neurons to corneal stimulation before CSD ([2]; male rats): 10.8±3.3 spikes/sec | response of HT neurons to dural indentation with VFH before CSD ([2]; male rats): 1.8±0.6 spikes/sec | mean firing rate of HT neurons after CSD ([2]; male rats, 2 hours after CSD): 1.9±1.5 spikes/sec | response of HT neurons to dural indentation with VFH after CSD ([2]; male rats, 2 hours after CSD, 6 hours after administration): 1.9±1.5 spikes/sec | mean firing rate of HT neurons before CSD ([2]; male rats): 1.2±0.6 spikes/sec
